The source of these data is patent publication US20250262297A1, “ALLERGY ANTIGEN AND EPITOPE THEREOF” (HOYU CO., LTD., priority 2017, published 2025).

B1: sucrose binding protein homolog S-64 (protein)
chain: ETEVEEDPELVTCKHQCQQQRQYTESDKRTCLQQCDSMKQEREKQVEEETREKEEEHQEQHEEEQDQNPYVFEEDKDFSTRVETEGGSIRVLKKFTEKSKLLQGNENFRLAILEARAHTFVSPRHFDSEVVLFNIKGRAVLGLVRESETEKITLEPGDMIHIPAGTPLYIVNRDENEKLLLAMLHIPVSTPGKFEEFFGPGGRDPESVLSAFSWNVLQAALQTPKGKLERLFNQQNEGSIFKISRERVRALAPTKKSSWWPFGGESKAQFNIFSKRPTFSNGYGRLTEVGPDDEKSWLQRLNLMLTFTNITQRSMSTIHYNSHATKIALVMDGRGHLQISCPHMSSRSDSKHDKSSPSYHRISADLKPGMVFVVPPGHPFVTIASNKENLLIICFEVNVRDNKKFTFAGKDNIVSSLDNVAKELAFNYPSEMVNGVFERKESLFFPFELPSEERGRRAVA
B2: succinyl-CoA ligase [ADP-forming] subunit beta, mitochondrial (protein)
chain: MVRGLLNKLVSRSLSVAGKWQHNQLRRLNIHEYQGAELMSKHGVNVPRGVAVSSVEEARKVIKDLFPNENELVVKSQILAGGRGLGTFKSGLKGGVHIVKTDQVEDIAGKMLGQILVTKQTGPQGKIVSKVYLCEKLSLVNEMYFAITLDRTSAGPIIIACSKGGTSIEDLAEKFPDMIIKVPVDVFEGITDEGAAKVVDGLALKVADRNKSIEQVKNLYKLFVDCDCTLLEINPIAETADNQLVAADAKLNFDDNAAYRQKEIFSLRDTTQEDPREVTAAKADLNYIGLDGEIGCMVNGAGLAMATMDIIKLHGGTPANFLDVGGNASENQVVEAFKILTADDKVKAILVNIFGGIMKCDVIASGIVNAAKEVALKVPVVVRLEGTNVDQGKRILKESGMALITAEDLDDAAQKAVKAAYK
modifications: Glycine max
B3: hypothetical protein GLYMA_10G028300 (protein)
chain: ETEVEEEDPELVTCKHQCQQPQQYTEGDKRVCLQRCDRYHRMKQEREKQIQEETREKKEEESREREEEQQEQHEEQDENPYIFEEDKDFETRVETEGGRIRVLKKFTEKSKLLQGIENFRLAILEARAHTFVSPRHFDSEVVFFNIKGRAVLGLVSESETEKITLEPGDMIHIPAGTPLYIVNRDENDKLFLAMLHIPVSVSTPGKFEEFFGPGGRDPESVLSAFSWNVLQAALQTPKGKLEKLFDQQNEGSIFAISREQVRALAPTKKSSWWPFGGESKPQFNIFSKRPTISNGYGRLTEVGPDDDEKSWLQRLNLMLTFTNITQRSMSTIHYNSHATKIALVIDGRGHLQISCPHMSSRSSHSKHDKSSPSYHRISSDLKPGMVFVVPPGHPFVTIASNKENLLMICFEVNARDNKKFTFAGKDNIVSSLDNVAKELAFNYPSEMVNGVFDRKESFFFPFELPREERGRRADA
B4: polyadenylate-binding protein 8 isoform X3 (protein)
chain: MAQVLENPTIDAAASGANPSLTTISLYVGDLHHDVNDPQLYDLFNQVAQVVSVRICRDVATQQSLGYGYVNFSNAHDAAKAIDVLNFTPLNGKIIRIMYSIRDPSARKSGAANVFIKNLDKAIDHKALYDTFSAFGNILSCKVATDASGQSKGHGFVQFESEESAQNAIDKLNGMLINDKQVFVGPFLRKQDRESALSGTKFNNVFVKNLLDSMTEADLERIFGEYGAITSAVVMRDVDGKSKGFGFVNFANVDDAAKAVEALNGKNFDGKEWYVGKAQKKSERELELKGQHEQITKETVDKYHGTNLYIKNLDDSVGDEELMELFSEFGTITSCKVMRDPNGISRGSGFVSFSIAEGATRALGEMNGKMVAGKPLYVALAQRKEDRRARLQAQFSQSRPAAITPNVSPRMPLYPLGAPAIGQQFLYGQAAPATIPQHFVPGMRPGGAPNFYVPLVQQGQQGQRPGGHRGSGPMQQLQQPLPLMHQQMLPRGHVYRYPSGSNMQNIQLAGVPGGMVTYGIGQQMPTQALASALANATPEQQRTMLGEALYPLVDKLEHEAAAKVTGMLLEMDQPEVLHLIESPDALKAKVVEAMDVLKKVTQQQSNSPADQLASLSLNDNVES
B5: protein disulfide isomerase-like protein precursor (protein)
chain: MPKFFHSIFRGTMAGRVSTCFFFVFALSLLLPFQISAEESSEKEFVLTLDHSNFHDTVSKHDFIVVEFYAPWCGHCKKLAPEYEKAASILSSHDPPVVLAKIDANEEKNKDLASQYDVRGYPTIKILRNGGKNVQEYKGPREADGIVDYLKKQSGPASTEIKSADEATAFIGENKVAIVGVFPKFSGEEFDNFSALAEKLRSDYDFGHTLNAKHLPRGESSVSGPVVRLFKPFDELFVDFQDFNVEALEKFVEESSTPVVTVFNNDPSNHPFVAKFFNSPNAKAMLFINFTAEGAESFKSKYREAAEQHKQQGVSFLVGDVESSQGAFQYFGLKEEQVPLIIIQHNDGKKFFKPNLEADHIPTWLKAYKDGNVAPFVKSEPIPEANDEPVKVVVGNSLEDIVFKSGKNVLLEFYAPWCGHCKQLAPILDEVAISYQSDADVVIAKLDATANDIPSETFDVQGYPTVYFRSASGKLSQYEGGRTKEDIIEFIEKNRDKPAQQEQGQDKPAQQEQGQDEQEKGKDEL
modifications: Glycine max
notes: spot also identified as protein disulfide-isomerase
B6: V-type proton ATPase subunit B 2 (protein)
chain: MGVAQNIPDAEEGTLEIGMEYRTVSGVAGPLVILDKVKGPKFQEIVNIRLGDGTTRRGQVLEVDGEKAVVQVFEGTSGIDNKFTTVQFTGEVLKTPVSLDMLGRIFNGSGKPIDNGPPILPEAYLDISGSSINPSERTYPEEMIQTGISTIDVMNSIARGQKIPLFSAAGLPHNEIAAQICRQAGLVKRLEKSDNLLEGGGEEDNFAIVFAAMGVNMETAQFFKRDFEENGSMERVTLFLNLANDPTIERIITPRIALTTAEYLAYECGKHVLVILTDMSSYADALREVSAAREEVPGRRGYPGYMYTDLATIYERAGRIEGRKGSITQIPILTMPNDDITHPTPDLTGYITEGQIYIDRQLYNRQIYPPINVLPSLSRLMKSAIGEGMTRKDHSDVSNQLYANYAIGKDVQAMKAVVGEEALSSEDLLYLEFLEKFERKFVAQGAYDTRNIFQSLDLAWTLLRIFPRELLHRIPAKTLDQFYSRDASN
modifications: Glycine max
B7: guanosine nucleotide diphosphate dissociation inhibitor 2 (protein)
chain: MDEEYDVIVLGTGLKECILSGLLSVDGLKVLHMDRNDYYGGESTSLNLIQLWKRFRGDDKPPPHLGASRDYNIDMNPKFIMANGNLVRVLIHTDVTKYLSFKAVDGSFVFNKGKVHKVPANDMEALKSPLMGLFEKRRARKFFIYVQNYNESDPKTHEGMDLTRVTTKELIAKYGLDDNTIDFIGHALALHSDDRYLAEPALDTVKRMKLYAESLARFQGGSPYIYPLYGLGELPQAFARLSAVYGGTYMLNKPECKVEFDEEGKVVGVTSEGETAKCKKVVCDPSYLPGKVRKVGRVARAIAIMSHPIPSTDDSHSVQIILPQKQLGRKSDMYLFCCSYTHNVAPKGKFIAFVSTEAETDQPAIELKPGIDLLGPVDEIFFDIYDRYEPVNEPTLDNCFVSTSYDATTHFESTVDDVLNMYTLITGKVIDLSVDLSAASAAEE
modifications: Glycine max

This assay deals with IgE antibodies from soybean-allergic patients. The experiment in a line: Immunoblotting of two-dimensional electrophoresis pattern of soybean proteins with patient serum. Conditions: spot in 2D electrophoresis gel of soybean proteins; patient serum compared with healthy subject serum. Format: binding, human. From the text:
Transfer to membrane was done using the following transfer system and transfer buffer. • Transfer system: XCell SureLock Mini-Cell and XCell II Blot Module (produced by Life Technologies) • Transfer buffer: NuPAGE Transfer Buffer (X20) (produced by Life Technologies), used in a form diluted 20-fold with milliQ water.
To be specific, proteins in the two-dimensional electrophoresis gels were transferred to a membrane (PVDF membrane) according to the following procedure. • (1) The PVDF membrane was immersed in 100% methanol followed by milliQ water, and then moved into the transfer buffer to hydrophilize the PVDF membrane. • (2) After sponge, filter paper, the gels treated by second-dimensional SDS-PAGE, the hydrophilized PVDF membrane, filter paper, and sponge were put in place in this order, the transfer system was energized at a constant voltage of 30 V for one hour.
Immunoblotting of the membrane was carried out using, as a primary antibody, a serum sample from a patient with a soybean allergy or a serum sample from a healthy subject.
Immunoblotting of the membrane was carried out according to the following procedure. • (1) The transferred membrane was shaken in a 5% skim milk/PBST solution (a PBS buffer containing 0.3% Tween 20 nonionic surfactant) at room temperature for one hour. • (2) The membrane was left to stand in a solution of 3% primary antibody serum in 5% skim milk/PBST at room temperature for one hour. • (3) The membrane was washed with a PBST solution (5 min.×3 times). • (4) The membrane was left to stand in a 1:2500 dilution of the secondary antibody, anti-human IgE-HRP (horseradish peroxidase), with a 3% skim milk/PBST solution at room temperature for one hour. • (5) The membrane was washed with a PBST solution (5 min.×3 times). • (6) The membrane was left to stand in Pierce Western Blotting Substrate Plus (produced by Thermo Fisher Scientific) for 5 minutes.
The membrane obtained through the foregoing series of treatments was subjected to fluorescent image scanning on Typhoon 9400 (produced by GE).
The immunoblots obtained with the serum from the soybean-allergic patient were compared with those obtained with the control serum from the healthy subject.
(A western blot detects proteins with antibodies after separation by electrophoresis.)
As to B1, the “specific binding to IgE antibodies from soybean-allergic patients” value (from here on “specific binding to IgE antibodies”) was “specific binding”.

Take B2: the “specific binding to IgE antibodies” value was “specific binding”.

Consider B3, for which the “specific binding to IgE antibodies” value is “specific binding”.

With B4, the “specific binding to IgE antibodies” value was “specific binding”.

Take B5: the “specific binding to IgE antibodies” value is recorded as “specific binding”.

Regarding B6, the “specific binding to IgE antibodies” value is “specific binding”.

For B7, the “specific binding to IgE antibodies” value was “specific binding”.
